Where two headings read alike, the source gives them in different places. Non-standard residues stand in square brackets, D forms with d. Residues, ends and D or L forms follow the SMILES beside them. *: point of attachment. X1 = CC1(C)C(=CC=CC=CC=CC2=[N+](CCCCCC(=O)*)c3ccc4ccccc4c3C2(C)C)N(CCCCS(=O)(=O)[O-])c2ccc3ccccc3c21; Cha = N[C@@H](CC1CCCCC1)C(=O)O
Description: ECGs were taken at baseline, 1 hr ± 15 min, and 44 hrs ± 6 h post-injection. Blood samples (including lever and kidney parameters) were sampled at baseline, 12 hrs ± 4 hrs, and 44 hrs ± 6 hrs post-injection. All laboratory analyses were performed by the Department of Biochemistry at Rigshospitalet. AE assessments were graded according to the National Cancer Institute “Common Terminology Criteria for Adverse Events (CTCAE)” version 5.0. There was no data monitoring committee in this trial.
[1] = FG001 36 mg i.v., n = 4, CTCAE v5.0

## CC(C)C[C@H](NC(=O)[C@H](Cc1ccc(O)cc1)NC(=O)[C@@H](CCCNC(=N)N)NC(=O)[C@@H](CO)NC(=O)[C@H](Cc1ccccc1)NC(=O)[C@H](CC1CCCCC1)NC(=O)[C@H](CC(=O)O)NC(=O)[C@H](CCC(=O)O)NC(=O)[C@H](CCC(=O)O)NC(=O)CCCCC[N+]1=C(C=CC=CC=CC=C2N(CCCCS(=O)(=O)[O-])c3ccc4ccccc4c3C2(C)C)C(C)(C)c2c1ccc1ccccc21)C(=O)N[C@@H](Cc1c[nH]c2ccccc12)C(=O)N[C@@H](CO)C(=O)O [FG001, ICG-Glu-Glu-AE105] (X1-EED[Cha]F[dS][dR]YLWS-OH; N-terminus and C-terminus assumed)
FG001 36 mg i.v., N=4
  TEAE Blood bilirubin increased: No. events: 4
  TEAE Blood bilirubin increased: No. subjects (%): 4 (100.0%)
  TEAE Blood creatinine increased: No. events: 1
  TEAE Blood creatinine increased: No. subjects (%): 1 (25.0%)
  TEAE Dysgeusia: No. events: 0
  TEAE Dysgeusia: No. subjects (%): 0 (0.0%)
  TEAE GGT increased: No. events: 1
  TEAE GGT increased: No. subjects (%): 1 (25.0%)
  TEAE Hypalbuminaemia: No. events: 1
  TEAE Hypalbuminaemia: No. subjects (%): 1 (25.0%)
  TEAE Hyperglycaemia: No. events: 1
  TEAE Hyperglycaemia: No. subjects (%): 1 (25.0%)
  TEAE Hypertension: No. events: 1
  TEAE Hypertension: No. subjects (%): 1 (25.0%)
  TEAE Hyponatraemia: No. events: 0
  TEAE Hyponatraemia: No. subjects (%): 0 (0.0%)
  TEAE Hypotension: No. events: 0
  TEAE Hypotension: No. subjects (%): 0 (0.0%)
  TEAE Hypothermia: No. events: 2
  TEAE Hypothermia: No. subjects (%): 1 (25.0%)
  TEAE Pneumonia: No. events: 0
  TEAE Pneumonia: No. subjects (%): 0 (0.0%)
  TEAE SOC General disorders and administration site conditions: No. events: 2
  TEAE SOC General disorders and administration site conditions: No. subjects (%): 1 (25.0%)
  TEAE SOC Infections and infestations: No. events: 0
  TEAE SOC Infections and infestations: No. subjects (%): 0 (0.0%)
  TEAE SOC Investigations: No. events: 9
  TEAE SOC Investigations: No. subjects (%): 4 (100.0%)
  TEAE SOC Metabolism and nutrition disorders: No. events: 2
  TEAE SOC Metabolism and nutrition disorders: No. subjects (%): 1 (25.0%)
  TEAE SOC Nervous system disorders: No. events: 0
  TEAE SOC Nervous system disorders: No. subjects (%): 0 (0.0%)
  TEAE SOC Vascular disorders: No. events: 1
  TEAE SOC Vascular disorders: No. subjects (%): 1 (25.0%)
FG001 36 mg i.v., n = 4
  FG001 related TEAEs: No. events: 0
  FG001 related TEAEs: No. patients (%): 0 (0%)
  SAEs: No. events: 0
  SAEs: No. patients (%): 0 (0%)
  TEAE: No. events: 14
  TEAE: No. patients (%): 4 (100%)
[1]
  TEAE Mild (Grade 1): No. events: 8
  TEAE Mild (Grade 1): No. patients (%): 1 (25.0%)
  TEAE Moderate (Grade 2): No. events: 3
  TEAE Moderate (Grade 2): No. patients (%): 2 (50.0%)
  TEAE Severe (Grade 3): No. events: 3
  TEAE Severe (Grade 3): No. patients (%): 1 (25.0%)
All doses, N = 17, CTCAE v5.0
  TEAE Mild (Grade 1): No. events: 24
  TEAE Mild (Grade 1): No. patients (%): 7 (41.2%)
  TEAE Moderate (Grade 2): No. patients (%): 8 (47.1%)
  TEAE Severe (Grade 3): No. patients (%): 1 (5.9%)
All doses, N=17
  FG001 related TEAEs: No. events: 0
  FG001 related TEAEs: No. patients (%): 0 (0%)
  SAEs: No. events: 0
  SAEs: No. patients (%): 0 (0%)
  TEAE ALT increased: No. events: 1
  TEAE ALT increased: No. subjects (%): 1 (5.9%)
  TEAE AST increased: No. events: 3
  TEAE AST increased: No. subjects (%): 3 (17.6%)
  TEAE Blood ALP increased: No. events: 1
  TEAE Blood ALP increased: No. subjects (%): 1 (5.9%)
  TEAE Blood bilirubin increased: No. events: 7
  TEAE Blood bilirubin increased: No. subjects (%): 7 (41.2%)
  TEAE Blood creatinine increased: No. events: 2
  TEAE Blood creatinine increased: No. subjects (%): 2 (11.8%)
  TEAE Dysgeusia: No. events: 1
  TEAE GGT increased: No. events: 1
  TEAE GGT increased: No. subjects (%): 1 (5.9%)
  TEAE Hypalbuminaemia: No. events: 10
  TEAE Hypalbuminaemia: No. subjects (%): 10 (58.8%)
  TEAE Hyperglycaemia: No. events: 2
  TEAE Hyperglycaemia: No. subjects (%): 2 (11.8%)
  TEAE Hypertension: No. events: 2
  TEAE Hypertension: No. subjects (%): 2 (11.8%)
  TEAE Hyponatraemia: No. events: 1
  TEAE Hyponatraemia: No. subjects (%): 1 (5.9%)
  TEAE Hypotension: No. events: 1
  TEAE Hypotension: No. subjects (%): 1 (5.9%)
  TEAE Hypothermia: No. events: 3
  TEAE Pneumonia: No. events: 1
  TEAE Pneumonia: No. subjects (%): 1 (5.9%)
  TEAE SOC General disorders and administration site conditions: No. events: 3
  TEAE SOC Infections and infestations: No. events: 1
  TEAE SOC Investigations: No. events: 15
  TEAE SOC Investigations: No. subjects (%): 9 (52.9%)
  TEAE SOC Metabolism and nutrition disorders: No. events: 13
  TEAE SOC Metabolism and nutrition disorders: No. subjects (%): 10 (58.8%)
  TEAE SOC Nervous system disorders: No. events: 1
  TEAE SOC Vascular disorders: No. events: 3
  TEAE SOC Vascular disorders: No. subjects (%): 3 (17.6%)
  TEAE: No. events: 36
  TEAE: No. patients (%): 16 (94.1%)
All doses, Table S1
  TEAE Alanine aminotransferase increased, Grade 3: No. events: 1
  TEAE Alkaline phosphatase increased, Grade 1: No. events: 1
  TEAE Aspartate aminotransferase increased, Grade 1: No. events: 2
  TEAE Aspartate aminotransferase increased, Grade 3: No. events: 1
  TEAE Blood bilirubin increased, Grade 1: No. events: 5
  TEAE Blood bilirubin increased, Grade 2: No. events: 2
  TEAE Creatinine increased, Grade 1: No. events: 2
  TEAE Dysgeusia (salty taste), Grade 1: No. events: 1
  TEAE GGT increased, Grade 3: No. events: 1
  TEAE Hyperglycemia, Grade 1: No. events: 2
  TEAE Hypertension, Grade 2: No. events: 2
  TEAE Hypoalbuminemia, Grade 1: No. events: 6
  TEAE Hypoalbuminemia, Grade 2: No. events: 4
  TEAE Hyponatremia, Grade 1: No. events: 1
  TEAE Hypotension, Grade 1: No. events: 1
  TEAE Hypothermia, Grade 1: No. events: 3
  TEAE Pneumonia, Grade 2: No. events: 1
In vivo
  Findings related to FG001 administration at physical examinations: No abnormal findings

Reference: article PMC11667226 (Theranostics, 2025)
